The text below walks through data of patent US6512097.

Common to all, as to test: SPR BIAcore
Background: SPR reads the build-up and loss of mass on a sensor chip optically.

Experiment [1] has as its target T1, c-erbB-2 ECD with a Ser-Gly-His6 C-terminal fusion (UniProt P04626 23-652).
T1 construct: extracellular domain; Expressed from CHO cells, IMAC purified; coupled to a CM5 chip, coated on plates, or biotinylated with NHS-LC-biotin; also called c-erbB-2 extracellular domain; biotinylated c-erbB-2 ECD

Experiment [2] addresses T1, c-erbB-2 ECD with a Ser-Gly-His6 …. This is another data set of the same source.
Experiment [3] has the same target. The procedure: All assays were performed in triplicate. Briefly, […] of radioiodinated sFv was added to 5×10^6 SK-OV cells in the presence of increasing concentrations of unlabeled sFv from the same preparation. After a 30 minute incubation at 20° C., the samples were washed with PBS at 4° C. and centrifuged at 500 g. The amount of labeled sFv bound to the cells was determined by counting the pellets in a gamma counter and the K_a, and K_d were calculated using the EBDA program (V 2.0, G. A. McPherson, 1983). The K_d of all the other isolated sFv were determined using surface plasmon resonance in a BIAcore (Pharmacia). In a BIAcore flow cell, approximately 1400 resonance units (RU) of c-erbB-2 ECD (25 μg/ml in 10 mM sodium acetate, pH 4.5) was coupled to a CM5 sensor chip (Johnsson et al. (1991), supra). Association and dissociation-rates were measured under continuous flow of […] using a concentration range from 50 to 800 nM. Rate constant $kon$ was determined from a plot of (1(dR/dt))/t vs concentration (Karlsson et al. (1991), supra). Rate constant $Hoff$ was determined from the dissociation part of the sensorgram at the highest concentration of sFv analyzed.
Dashes indicate sequence identity. Mutations arising from PCR error and located outside V_H CDR3 are listed under the heading other mutations. F = frequency of isolated scFv. *$koff$ determined from unpurified scFv samples. Underline indicates mutated residue.
This is another data set of the same source.

Where a chain is given by its changes, count along the chain named. Several values for one entry are separate records, joined by “and”; a condition that tells them apart may be missing. Identical values can stand only once. Like-named read-outs stand apart in the source and are kept apart here.

B1: C6HL3-10 (scFv)
scFv: QVQLLQSGAELKKPGESLKISCKGSGYSFTSYWIAWVRQMPGKGLEYMGLIYPGDSDTKYSPSFQGQVTISVDKSVSTAYLQWSSLKPSDSAVYFCARHDVGYCSSSNCAKWPEYFQHWGQGTLVTVSSGGGGSGGGGSGGGGSQSVLTQPPSVSAAPGQKVTISCSGSSSNIGNNYVSWYQQLPGTAPKLLIYGHTNRPAGVPDRFSGSKSGTSASLAISGFRSEDEADYYCAAWEDPWYGWVFGGGTKLTVLG
notes: label as printed (probably C6ML3-10)
In general, Kd refers to the concentration at which binding is half-saturated. For orientation: koff means a measure of how fast the partners let go of each other. A high value points to fast dissociation. In experiment [1], B1 yielded a Kd of 2.3 nM and a dissociation rate constant (koff) of 0.0014 s⁻¹.

B2: C6ML3-22 (scFv)
scFv: B1 scFv with E237D, D238A, P239S, W240L, Y241S
For the molecule B2, in experiment [2], the Kd turned out to be 8.3 nM and the koff is 0.0036 s⁻¹.

B3: C6ML3-24 (scFv)
scFv: B1 scFv with E237D, D238E, P239Q, W240I, Y241F
On to B3, for which, in experiment [2], the Kd is 12.4 nM and the koff was 0.0079 s⁻¹.

B4: C6MH3-B48 (scFv)
scFv: B1 scFv with S105T, S106D, S107P, N108S, A235S, E237D, D238Y, P239T, W240L, Y241S
notes: C6ML3-9 sFv, VH CDR3 library B mutant
In experiment [3], B4 displayed a Kd of 0.23 nM and a dissociation rate constant (koff) of 0.00013 s⁻¹.

B5: C6MH3-B39 (scFv)
scFv: B1 scFv with S105T, S106D, S107P, N108T, A235S, E237D, D238Y, P239T, W240L, Y241S
notes: as for B4
In experiment [3], B5 gave a Kd of 0.32 nM and a koff of 0.00019 s⁻¹.

B6: C6MH3-B11 (scFv)
scFv: B1 scFv with S106D, S107R, N108S, A235S, E237D, D238Y, P239T, W240L, Y241S
notes: as for B4
Take B6: in experiment [3], the affinity, expressed as Kd, was 0.22 nM and the off-rate constant (koff) was determined as 0.00023 s⁻¹.

B7: C6ML3-A3 (scFv)
scFv: B1 scFv with N108D, A235S, E237D, D238Y, P239T, W240L, Y241S
In experiment [3], B7 gave a dissociation constant (Kd) of 16 nM and a koff of 0.0063 s⁻¹.

B8: C6MH3-B25 (scFv)
scFv: B1 scFv with S105L, S106T, S107T, N108R, A235S, E237D, D238Y, P239T, W240L, Y241S
notes: as for B4
In experiment [3], B8 had a Kd of 0.36 nM and a koff of 0.00019 s⁻¹.

B9: C6ML3-18 (scFv)
scFv: B1 scFv with A235S, E237D, D238A, P239S, W240L, Y241W
Regarding B9, in experiment [2], the dissociation constant (Kd) is 2.4 nM and the off-rate (koff) was 0.00062 s⁻¹.

B10: C6MH3-D3 (scFv)
scFv: B1 scFv with Y115W, F116L, Q117D, H118N, A235S, E237D, D238Y, P239T, W240L, Y241S
notes: C6ML3-9 sFv, VH CDR3 library D mutant
In experiment [3], B10 yielded a dissociation constant (Kd) of 0.27 nM and an off-rate constant (koff) of 0.00025 s⁻¹.

B11: C6ML3-16 (scFv)
scFv: B1 scFv with A235S, E237D, D238Y, P239Y, W240R, Y241S
In experiment [2], B11 registered a Kd of 5 nM and an off-rate constant (koff) of 0.0017 s⁻¹.

B12: C6MH3-B9 (scFv)
scFv: B1 scFv with S105K, S106T, S107A, N108A, A235S, E237D, D238Y, P239T, W240L, Y241S
notes: as for B4
Take B12: in experiment [3], the affinity, expressed as Kd, was 0.87 nM and the koff is 0.00033 s⁻¹.

B13: C6MH3-B5 (scFv)
scFv: B1 scFv with S105T, S106D, S107A, N108T, A235S, E237D, D238Y, P239T, W240L, Y241S
notes: as for B4
With B13, in experiment [3], the dissociation constant Kd worked out at 0.34 nM and the koff is 0.00023 s⁻¹.

B14: C6ML3-2 (scFv)
scFv: B1 scFv with E237D, D238H, P239S, W240L, Y241S
In experiment [1], B14 showed a Kd of 2.8 nM and a koff of 0.002 s⁻¹.

B15: C6ML3-28 (scFv)
scFv: B1 scFv with A235S, E237D, D238Y, P239A, W240L, Y241S
In experiment [2], B15 returned a Kd of 2.5 nM and a koff of 0.0017 s⁻¹.

B16: C6ML3-25 (scFv)
scFv: B1 scFv with E237D, D238N, P239R, W240H, Y241S
On to B16, for which, in experiment [2], the affinity, expressed as Kd, was 7.4 nM and the koff turned out to be 0.0044 s⁻¹.

B17: C6MH3-B21 (scFv)
scFv: B1 scFv with S105T, S106T, S107P, N108L, A235S, E237D, D238Y, P239T, W240L, Y241S
notes: as for B4
With B17, in experiment [3], the affinity, expressed as Kd, was 0.73 nM and the koff was found to be 0.00024 s⁻¹.

B18: C6MH3-D1 (scFv)
scFv: B1 scFv with Y115W, F116L, Q117H, H118V, A235S, E237D, D238Y, P239T, W240L, Y241S
notes: as for B10
In experiment [3], B18 gave a dissociation constant (Kd) of 0.31 nM and a koff of 0.00011 s⁻¹.

B19: C6ML3-17 (scFv)
scFv: B1 scFv with A235S, E237D, D238Y, P239Y, W240R, Y241S
In experiment [2], B19 yielded a Kd of 5 nM and a koff of 0.0017 s⁻¹.

B20: C6MH3-B16 (scFv)
scFv: B1 scFv with S105A, S106D, S107V, N108R, A235S, E237D, D238Y, P239T, W240L, Y241S
notes: as for B4
With B20, in experiment [3], the equilibrium dissociation constant (Kd) was found to be 0.31 nM and the koff was 0.00028 s⁻¹.

B21: C6MH3-B2 (scFv)
scFv: B1 scFv with S105T, S106D, S107P, N108R, A235S, E237D, D238Y, P239T, W240L, Y241S
notes: as for B4
Turning to B21, in experiment [3], the Kd was 0.31 nM and 0.58 nM; the dissociation rate constant (koff) was 0.00031 s⁻¹ and 0.00032 s⁻¹.

B22: C6ML3-26 (scFv)
scFv: B1 scFv with E237D, P239S, W240R, Y241S
For B22, in experiment [2], binding was put at a Kd of 8.3 nM and the koff came out at 0.005 s⁻¹.

B23: C6MH3-D6 (scFv)
scFv: B1 scFv with Y115W, F116M, Q117Y, H118P, A235S, E237D, D238Y, P239T, W240L, Y241S
notes: as for B10
Turning to B23, in experiment [3], binding was put at a Kd of 0.35 nM and the off-rate constant (koff) was found to be 0.00018 s⁻¹.

B24: C6ML3-3 (scFv)
scFv: B1 scFv with A235T, E237D, D238Y, P239A, W240L, Y241S
B24: in experiment [1], binding was put at a Kd of 4.3 nM and the koff came to 0.002 s⁻¹.

B25: C6ML3-20 (scFv)
scFv: B1 scFv with D238Q, P239S, W240L, Y241W
In experiment [2], B25 had a dissociation constant (Kd) of 3 nM and an off-rate constant (koff) of 0.0014 s⁻¹.

B26: C6MH3-B15 (scFv)
scFv: B1 scFv with S105E, N108R, A235S, E237D, D238Y, P239T, W240L, Y241S
notes: as for B4
On to B26, for which, in experiment [3], binding was characterised by a dissociation constant (Kd) of 0.77 nM and the koff was found to be 0.00029 s⁻¹.

B27: C6MH3-D5 (scFv)
scFv: B1 scFv with Y115W, F116M, H118M, A235S, E237D, D238Y, P239T, W240L, Y241S
notes: as for B10
In experiment [3], B27 came in with a Kd of 0.38 nM and a koff of 0.00021 s⁻¹.

B28: C6MH3-B41 (scFv)
scFv: B1 scFv with S105T, S106D, S107R, N108P, A235S, E237D, D238Y, P239T, W240L, Y241S
notes: as for B4
Take B28: in experiment [3], the Kd is 0.53 nM and the koff turned out to be 0.00027 s⁻¹.

B29: C6ML3-1 (scFv)
scFv: B1 scFv with E237D, D238Y, P239S, W240L, Y241W
In experiment [1], B29 yielded a Kd of 6.7 nM and a koff of 0.002 s⁻¹.

B30: C6MH3-B20 (scFv)
scFv: B1 scFv with S106P, S107A, N108R, A235S, E237D, D238Y, P239T, W240L, Y241S
notes: as for B4
In experiment [3], B30 registered an equilibrium dissociation constant (Kd) of 0.87 nM and a koff of 0.00016 s⁻¹.

B31: C6MH3-C3 (scFv)
scFv: B1 scFv with G15E, N198D, A235S, E237D, D238Y, P239T, W240L, Y241S
Consider B31, for which, in experiment [3], the dissociation constant (Kd) is 0.65 nM and the koff amounted to 0.00032 s⁻¹.

B32: C6MH3-B27 (scFv)
scFv: B1 scFv with S105K, S106N, N108R, A235S, E237D, D238Y, P239T, W240L, Y241S
notes: as for B4
In experiment [3], B32 showed a Kd of 0.47 nM and a koff of 0.0004 s⁻¹.

B33: C6ML3-21 (scFv)
scFv: B1 scFv with E237D, D238Y, P239S, W240Q, Y241S
In experiment [2], B33 gave a dissociation constant (Kd) of 4.5 nM and a koff of 0.0022 s⁻¹.
